Assay results taken from patent US20170166934A1.

Columns and labels:
[1] = test system: T1, wild type Penicillium oxalicum glucoamylase
T1 sequence: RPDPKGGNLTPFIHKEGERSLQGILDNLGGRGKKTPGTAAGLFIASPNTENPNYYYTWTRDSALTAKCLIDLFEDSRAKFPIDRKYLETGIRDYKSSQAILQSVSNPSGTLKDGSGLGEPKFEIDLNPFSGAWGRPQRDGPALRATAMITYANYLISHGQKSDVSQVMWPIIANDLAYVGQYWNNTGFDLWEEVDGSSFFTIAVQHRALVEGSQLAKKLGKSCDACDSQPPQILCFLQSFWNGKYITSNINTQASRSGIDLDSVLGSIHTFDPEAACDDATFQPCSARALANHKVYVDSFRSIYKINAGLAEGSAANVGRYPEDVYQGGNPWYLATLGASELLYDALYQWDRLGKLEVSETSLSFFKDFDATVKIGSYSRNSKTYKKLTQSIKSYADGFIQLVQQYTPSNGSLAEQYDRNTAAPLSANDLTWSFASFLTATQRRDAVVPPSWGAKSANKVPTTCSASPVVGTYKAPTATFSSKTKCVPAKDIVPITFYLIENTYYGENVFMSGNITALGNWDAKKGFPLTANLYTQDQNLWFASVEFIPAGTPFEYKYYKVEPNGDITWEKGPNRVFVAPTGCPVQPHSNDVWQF

[2] = target: wild type Penicillium oxalicum glucoamylase (Penicillium oxalicum); test: cell-based or functional assay
[3] = target: Penicillium oxalicum glucoamylase variant PE001 (SEQ ID NO: 14 + K79V substitution) (Penicillium oxalicum); test: cell-based or functional assay

| Substance | cleaved glucoamylase (ca. 60 kDa) on SDS-PAGE after overnight protease treatment at 4 °C [1] [%] | cleaved glucoamylase (ca. 60 kDa) on SDS-PAGE after overnight protease treatment at 32 °C [1] [%] | intact glucoamylase (ca. 70 kDa) on SDS-PAGE after overnight protease treatment at 4 °C [2] [%] | intact glucoamylase (ca. 70 kDa) on SDS-PAGE after overnight protease treatment at 32 °C [2] [%] | intact glucoamylase (ca. 70 kDa) on SDS-PAGE after overnight protease treatment at 4 °C [3] [%] | intact glucoamylase (ca. 70 kDa) on SDS-PAGE after overnight protease treatment at 32 °C [3] [%] |
| --- | --- | --- | --- | --- | --- | --- |
| aorsin | 60 | 90 | – | – | – | – |
| aorsin (enzyme) | – | – | 40 | 10 | 100 | 100 |
| aspergillopepsin I | – | 10 | – | – | – | – |
| aspergillopepsin I (enzyme) | – | – | 100 | 90 | 100 | 100 |
